Common to all, as to conditions: one partner purified
Test [1] addresses T1, endothelin A receptor (ETaR) (Homo sapiens (assumed), UniProt P25101).
T1 construct: endothelin A receptor (ETaR), a GPCR; plasmid and cells were gifts from Gmax Biopharm LLC; also called GPCR; ETaR-expressing CHO cells; source: CHO cells stably expressing and displaying ETaR (provided by Gmax Biopharm LLC); on cells, and in vesicles prepared from them
In words: flow cytometry on cells; purified scFv-His at 1 to 316 nM on ETaR-expressing CHO cells, 1 h at 4 °C; FITC-conjugated anti-His; Kd from the dose-response curve (GraphPad PRISM 5.0). For orientation: A flow cytometer gives signals particle by particle.

The target in test [2] is T1, endothelin A receptor (ETaR). In words: flow cytometry on cells; competition: unlabelled scFv at 0.01 to 316 nM against FITC-labeled wild-type anti-GPCR at L = 150 nM on ETaR-expressing CHO cells, 1 h at 4 °C; Ki = IC50/(1 + L/Kd).
Test [3] has the same target. In words: flow cytometry on cells; competition of unlabelled full-length antibodies, obtained similarly as for scFv; L = 13 nM; Ki = IC50/(1 + L/Kd).
Test [4] has the same target. Nature of the test: flow cytometry on cells; purified full-length antibodies titrated on ETaR-expressing CHO cells as for scFv; PE-conjugated anti-IgG; Kd from the dose-response curve.
The target of the next test is T2, ETaR-GFP (UniProt P25101).
T2 construct: endothelin A receptor (ETaR) with GFP fused to its C-terminus (in cytosol); also called ETaR cells; ETaR-GFP cells; source: CHO cells stably expressing ETaR-GFP (provided by Gmax Biopharm LLC; clone S-33 for vesicles); on cells, and in vesicles prepared from them; not shown: GFP, C-terminal, kept
Nature of the test: flow cytometry on cells; cells stably expressing ETaR-GFP incubated with purified full-length or scFv-Fc antibodies for 30 min, then PE-conjugated anti-IgG (Fig. 4c, 4d, 5b).

Test [5] deals with T1, endothelin A receptor (ETaR). In words: flow cytometry on cells; competition of unlabelled full-length antibodies, obtained similarly as for scFv; L = 13 nM; Ki = IC50/(1 + L/Kd). The source holds these as a separate data set.

As usually defined, the Kd is the equilibrium constant for the complex coming apart. A high value points to lower affinity. In general, IC50 refers to the midpoint of a concentration-inhibition curve. The Ki is the dissociation constant of the complex between target and ligand, obtained from inhibition or displacement.

T1 sequence (P25101 21-427): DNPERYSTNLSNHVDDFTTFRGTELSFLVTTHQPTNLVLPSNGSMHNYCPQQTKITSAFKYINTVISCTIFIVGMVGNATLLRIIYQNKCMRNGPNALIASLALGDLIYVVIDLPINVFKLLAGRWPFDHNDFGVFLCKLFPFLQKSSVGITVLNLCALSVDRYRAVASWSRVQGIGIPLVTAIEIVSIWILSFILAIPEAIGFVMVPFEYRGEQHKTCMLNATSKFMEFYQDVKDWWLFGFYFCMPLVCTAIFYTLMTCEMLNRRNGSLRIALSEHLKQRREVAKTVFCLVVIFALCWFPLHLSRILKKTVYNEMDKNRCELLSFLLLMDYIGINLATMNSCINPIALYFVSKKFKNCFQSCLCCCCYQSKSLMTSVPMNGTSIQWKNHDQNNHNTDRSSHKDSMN
T2 sequence (P25101 21-427): as above

B1: anti-GPCR (ETaR) antibody 80H4, scFv-His, wild type (scFv, V domains shown)
VH: EVQLLESGGGLVQPGGSLRLSCAASGFTFSSYGMSWVRQAPGKGLEWVSAISTNGATAYYADSVKGRFTISRDNSKNTLYLQMNSLRAEDTAVYYCATEKGAMGYWGQGTLVTVSS
VL: DIVMTQTPLSLSVTPGQPASISCRSSQNIVHSTGNTYLEWYLQKPGQSPQLLIYKVSNRFSGVPDRFSGSGSGTDFTLKISRVEAEDVGVYYCFQGSHFPFTFGQGTKVEIK
notes: heavy-chain variable region of 80H4; (G4S)3 linker; light-chain variable region of 80H4; Order HV-(G4S)3-LV; made with a signal peptide (SP); also called WT; anti-GPCR-scFv-His; source: Expi293F, transfected, purified from supernatant (Ni-NTA); not shown: His tag, C-terminal, kept
On to B1, for which binding in test [1] was put at a Kd of 169 nM. Besides, in test [2], the IC50 stood at 568 nM and the Ki came to 300 nM.

B2: anti-GPCR (ETaR) antibody 80H4, full-length, mutant S115N-S30R (antibody, V domains shown)
VH: EVQLLESGGGLVQPGGSLRLSCAASGFTFRSYGMSWVRQAPGKGLEWVSAISTNGATAYYADSVKGRFTISRDNSKNTLYLQMNSLRAEDTAVYYCATEKGAMGYWGQGTLVTVNS
VL: DIVMTQTPLSLSVTPGQPASISCRSSQNIVHSTGNTYLEWYLQKPGQSPQLLIYKVSNRFSGVPDRFSGSGSGTDFTLKISRVEAEDVGVYYCFQGSHFPFTFGQGTKVEIK
notes: heavy-chain variable region as the heavy chain of m13; heavy-chain constant region as in m13; light-chain variable region as the light chain of m13; light-chain constant region as in m13; source: Expi293F, heavy and light chains co-expressed, purified from supernatant (Protein A); copies: 2 + 2
On to B2, for which, in test [3], the IC50 amounted to 22.4 nM and the Ki came out at 10.2 nM. Moreover, the Kd in test [4] came to 10.8 nM.

B3: anti-GPCR (ETaR) antibody 80H4, scFv-His, mutant T113A-V64M-N28Y (scFv, V domains shown)
VH: EVQLLESGGGLVQPGGSLRLSCAASGFTFSSYGMSWVRQAPGKGLEWVSAISTNGATAYYADSMKGRFTISRDNSKNTLYLQMNSLRAEDTAVYYCATEKGAMGYWGQGTLVAVSS
VL: DIVMTQTPLSLSVTPGQPASISCRSSQYIVHSTGNTYLEWYLQKPGQSPQLLIYKVSNRFSGVPDRFSGSGSGTDFTLKISRVEAEDVGVYYCFQGSHFPFTFGQGTKVEIK
notes: heavy-chain variable region as in m3; (G4S)3 linker; light-chain variable region as in m3; Combination of N28Y and T113A-V64M made by the authors; source: Expi293F, transfected, purified from supernatant (Ni-NTA); not shown: His tag, C-terminal, kept
As for B3, the Kd in test [1] was determined as 22.4 nM. Moreover, in test [2], the half-maximal inhibitory concentration (IC50) is 170 nM and the inhibitory constant (Ki) amounted to 22.1 nM.

B4: anti-GPCR (ETaR) antibody 80H4, full-length, mutant with six mutations (S115N-S30R-D73H combined with T113A-V64M-N28Y) (antibody, V domains shown)
VH: EVQLLESGGGLVQPGGSLRLSCAASGFTFRSYGMSWVRQAPGKGLEWVSAISTNGATAYYADSMKGRFTISRHNSKNTLYLQMNSLRAEDTAVYYCATEKGAMGYWGQGTLVAVNS
VL: DIVMTQTPLSLSVTPGQPASISCRSSQYIVHSTGNTYLEWYLQKPGQSPQLLIYKVSNRFSGVPDRFSGSGSGTDFTLKISRVEAEDVGVYYCFQGSHFPFTFGQGTKVEIK
notes: heavy-chain variable region as the heavy chain of m13; heavy-chain constant region as in m13; light-chain variable region as the light chain of m13; light-chain constant region as in m13; also called the mutant with these six mutations; the full-length antibody clone containing the 6 point mutations; source: Expi293F, heavy and light chains co-expressed, purified from supernatant (Protein A); …
As for B4, in the test with ETaR-GFP, the binding result is reported as “binds”.

B5: anti-GPCR (ETaR) antibody 80H4, full-length, mutant T113A-V64M-N28Y (antibody, V domains shown)
VH: EVQLLESGGGLVQPGGSLRLSCAASGFTFSSYGMSWVRQAPGKGLEWVSAISTNGATAYYADSMKGRFTISRDNSKNTLYLQMNSLRAEDTAVYYCATEKGAMGYWGQGTLVAVSS
VL: DIVMTQTPLSLSVTPGQPASISCRSSQYIVHSTGNTYLEWYLQKPGQSPQLLIYKVSNRFSGVPDRFSGSGSGTDFTLKISRVEAEDVGVYYCFQGSHFPFTFGQGTKVEIK
notes: heavy-chain variable region as the heavy chain of m13; heavy-chain constant region as in m13; light-chain variable region as the light chain of m13; light-chain constant region as in m13; also called T113A-V64M-N28Y mutant full-length antibody; source: Expi293F, heavy and light chains co-expressed, purified from supernatant (Protein A); copies: 2 + 2
As to B5, the Ki in test [5] stood at 15.6 nM.

B6: anti-GPCR (ETaR) antibody 80H4, scFv-His, mutant T113A-V64M (scFv, V domains shown)
VH: EVQLLESGGGLVQPGGSLRLSCAASGFTFSSYGMSWVRQAPGKGLEWVSAISTNGATAYYADSMKGRFTISRDNSKNTLYLQMNSLRAEDTAVYYCATEKGAMGYWGQGTLVAVSS
VL: DIVMTQTPLSLSVTPGQPASISCRSSQNIVHSTGNTYLEWYLQKPGQSPQLLIYKVSNRFSGVPDRFSGSGSGTDFTLKISRVEAEDVGVYYCFQGSHFPFTFGQGTKVEIK
notes: heavy-chain variable region as in m3; (G4S)3 linker; light-chain variable region as in m3; source: Expi293F, transfected, purified from supernatant (Ni-NTA); not shown: His tag, C-terminal, kept
B6 came in with a Kd in test [1] of 87 nM. Besides, in test [2], the IC50 stood at 227 nM and the Ki worked out at 83.4 nM.

B7: anti-GPCR (ETaR) antibody 80H4, full-length, wild type (antibody, V domains shown)
VH: EVQLLESGGGLVQPGGSLRLSCAASGFTFSSYGMSWVRQAPGKGLEWVSAISTNGATAYYADSVKGRFTISRDNSKNTLYLQMNSLRAEDTAVYYCATEKGAMGYWGQGTLVTVSS
VL: DIVMTQTPLSLSVTPGQPASISCRSSQNIVHSTGNTYLEWYLQKPGQSPQLLIYKVSNRFSGVPDRFSGSGSGTDFTLKISRVEAEDVGVYYCFQGSHFPFTFGQGTKVEIK
notes: heavy-chain variable region of 80H4; heavy-chain constant region (HC); labelled by anti-human IgG; light-chain variable region of 80H4; light-chain constant region (LC); also called WT; full-length wild-type antibody; source: Expi293F, heavy and light chains co-expressed, purified from supernatant (Protein A); copies: 2 + 2
Regarding B7, in test [3], the IC50 was found to be 50.1 nM and the inhibition constant (Ki) stood at 31.3 nM. In test [4], this molecule gave a Kd of 21.5 nM.

Values taken from publication PMC6719327 (Applied Microbiology and Biotechnology, 2019).
